Source: publication PMC5753752

Legend:
GLP-1R-T378SphK = GLP-1R-T378SphK (UniProt P43220)
wild-type GLP-1R = wild-type GLP-1R (UniProt P43220)
[1] = biological target: Cy3-labeled GLP-1R-T378SphK (UniProt P43220)

GLP-1-induced cAMP accumulation in transfected HEK293T cells, pEC50 (GLP-1R-T378SphK): 10.3 | GLP-1-induced cAMP accumulation in transfected HEK293T cells, pEC50 (wild-type GLP-1R): 10.7 | GLP-1-induced cAMP accumulation in transfected HEK293T cells, pEC50 [1]: 10.4
Substance: GLP-1 peptide
